Measurements published in PMC4501333, “ATF4 licenses C/EBPβ activity in human mesenchymal stem cells primed for adipogenesis”.

B1: hybrid (ATF4 motif) EMSA probe (dsDNA)
DNA 1: GAGCAAATCTGATGCAATATAAGTC
DNA 2: GGACTTATATTGCATCAGATTTGCT
B2: palindromic C/EBP EMSA probe (dsDNA)
DNA 1: GAGCAAATATTGCGCAATATAAGTC
DNA 2: GGACTTATATTGCGCAATATTTGCT

Legend:
[1] = target: C/EBPβ (heterodimer subunit);ATF4 (heterodimer subunit) (human?;human?, UniProt P17676;P18848 1-345;1-351, |); test: EMSA; ATF4 added to C/EBPβ; higher affinity than C/EBPβ homodimer; antibodies inhibit heterodimer binding; EMSA: 10 mM HEPES pH 7.8, 50 mM NaCl, 10 mM MgCl2, 5 mM DTT, protease inhibitor, 0.25 mg/ml BSA, 5 ng/ul poly dIdC, 5% glycerol, ~5 fmol probe in 20 ul; native; conditions: protein: recombinant;recombinant; tags: N-terminal His (pET30a);N-terminal His (pET30a); copies: 1;1; label: 32P
ATF4 = ATF4 (UniProt P18848 1-351); test: EMSA; ATF4 alone, up to 90 uM; probe 0.25 nM; EMSA: 10 mM HEPES pH 7.8, 50 mM NaCl, 10 mM MgCl2, 5 mM DTT, protease inhibitor, 0.25 mg/ml BSA, 5 ng/ul poly dIdC, 5% glycerol, ~5 fmol probe in 20 ul; native; conditions: protein: recombinant; tags: N-terminal His (pET30a); chain copies: 2; label: 32P
C/EBPβ = C/EBPβ (UniProt P17676 1-345); test: EMSA; C/EBPβ 100-900 nM; preferred site; probe 0.25 nM; EMSA: 10 mM HEPES pH 7.8, 50 mM NaCl, 10 mM MgCl2, 5 mM DTT, protease inhibitor, 0.25 mg/ml BSA, 5 ng/ul poly dIdC, 5% glycerol, ~5 fmol probe in 20 ul; native; conditions: protein: recombinant; tags: N-terminal His (pET30a); chain copies: 2; label: 32P
C/EBPβ, sequence (P17676 whole entry): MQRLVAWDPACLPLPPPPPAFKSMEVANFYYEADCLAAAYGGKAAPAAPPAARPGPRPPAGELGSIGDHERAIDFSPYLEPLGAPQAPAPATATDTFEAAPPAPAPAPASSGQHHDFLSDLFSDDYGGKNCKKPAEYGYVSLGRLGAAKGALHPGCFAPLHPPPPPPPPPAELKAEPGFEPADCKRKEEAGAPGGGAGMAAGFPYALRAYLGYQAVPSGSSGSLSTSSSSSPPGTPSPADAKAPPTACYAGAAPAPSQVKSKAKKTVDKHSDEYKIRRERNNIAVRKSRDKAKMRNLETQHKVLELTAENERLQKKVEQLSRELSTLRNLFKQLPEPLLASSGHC

ATF4, sequence (P18848 whole entry): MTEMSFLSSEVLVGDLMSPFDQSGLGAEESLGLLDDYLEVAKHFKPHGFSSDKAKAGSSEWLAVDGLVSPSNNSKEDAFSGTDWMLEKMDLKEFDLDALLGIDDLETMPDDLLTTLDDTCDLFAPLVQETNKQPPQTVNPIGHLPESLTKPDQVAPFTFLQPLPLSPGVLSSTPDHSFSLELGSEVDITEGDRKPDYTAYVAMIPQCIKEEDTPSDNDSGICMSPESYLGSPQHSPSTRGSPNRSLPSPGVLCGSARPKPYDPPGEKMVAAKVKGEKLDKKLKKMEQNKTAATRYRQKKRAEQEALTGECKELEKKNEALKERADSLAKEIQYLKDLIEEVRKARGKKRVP
C/EBPβ (heterodimer subunit);ATF4 (heterodimer subunit), sequence (P17676 whole entry, chain 1 of 2): as the sequence (P17676 whole entry) above
C/EBPβ (heterodimer subunit);ATF4 (heterodimer subunit), sequence (P18848 whole entry, chain 2 of 2): as the sequence (P18848 whole entry) above

Row | Binder | binding result [1] | binding result (ATF4) | binding result (C/EBPβ)
1 | B1 | binds | no binding | 
2 | B2 |  | no binding | binds
